Measured values taken from patent US20170247448A1 (INTRINSIC LIFESCIENCES, published 2017).
Ends that are not written are not given here.

Assays:
NT-biotin hepcidin-25 [1] = target: T1, NT-biotin hepcidin-25 (human, NT-biotin (biotin at the N-terminus)); assay: SPR, Biacore 3000, biotin peptide on neutravidin CM5 chip, MAb 583 injected at 24 µg/ml, 25 C; hepcidin-25 biotinylated at the N-terminus (NT-biotin) on the chip; MAb 583 at 24 µg/ml
T1 construct: also called NT-biotin hepcidin-25 tracer; NT-Bio Tracer
T1 peptide: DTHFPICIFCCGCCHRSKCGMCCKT
Protocol: (§1) Biotinylated hepcidin peptides (NT-biotin-hepcidin-25, K18-biotin-hepcidin-25 and K24-biotin-hepcidin-25) were immobilized in flow cells 2-4 (one peptide species per flow cell) by injecting individual peptides at a concentration of 200 μg/ml at a flow rate of 5 μl/min, for 20 min.
(§2) After 3 minutes, injection was stopped and dissociation was followed for 6 min. Regeneration was performed by injecting 10 mM glycine HCl, pH 1.5 at a flow rate of 10 μl/min for 1 min.

Mouse hepcidin-1 peptide = target: T2, Mouse hepcidin-1 peptide (mouse); assay: competition ELISA on MAb 583 coated plate, NT-biotin hepcidin-25 tracer
T2 construct: also called mouse hepcidin-25; murine hepcidin-1
T2 peptide: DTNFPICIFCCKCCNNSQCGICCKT
Description: (§3) Competition was detected by streptavidin-HRP with the substrate tetramethylbenzidine; the color reaction was stopped with 0.5 N H₂SO₄ and the optical density of the solution read at 450 nm wavelength.
(§4) Binding of biotinylated hepcidin-25 analogs and detection of bound NT-biotin hepcidin-25 was used to detect relative degree of binding of each of the hepcidin peptides relative to hepcidin-25 (data not shown).

[2] = target: T3, Human hepcidin 10-25 peptide (human, also: oxidized peptide); assay: as above
T3 construct: also called hep 10-25; Hep 10-25
T3 peptide: CCGCCHRSKCGMCCKT
Description: as §3, §4

[3] = target: T4, Human hepcidin peptide (hepcidin-25) (human); assay: antibody titering ELISA, hepcidin 100 ng/well on plate, HRP-goat anti-mouse IgG; antibody 100 ng/well
T4 construct: Synthetic 25 aa peptide; also called hep-25; Hep-25
T4 peptide: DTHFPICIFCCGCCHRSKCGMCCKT

K18-biotin hepcidin-25 [4] = target: T5, K18-biotin hepcidin-25 (human, K18-biotin (biotin on Lys 18)); assay: SPR, Biacore 3000, biotin peptide on neutravidin CM5 chip, MAb 583 injected at 24 µg/ml, 25 C; hepcidin-25 biotinylated at K18 (K18-biotin) on the chip; MAb 583 at 24 µg/ml
T5 construct: also called K18-biotin hepcidin-25 tracer
T5 peptide: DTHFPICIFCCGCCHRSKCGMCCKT
Protocol: as §1, §2

[5] = target: T4, Human hepcidin peptide (hepcidin-25); assay: cell-based or functional assay
NT-biotin hepcidin-25 [6] = target: T1, NT-biotin hepcidin-25; assay: SPR, Biacore, biotin peptide on neutravidin chip, MAb 583 at 5 µg/ml
K18-biotin hepcidin-25 [7] = target: T5, K18-biotin hepcidin-25; assay: as above
NT-biotin hepcidin-25 [8] = target: T1, NT-biotin hepcidin-25; assay: SPR, Biacore 3000, biotin peptide on neutravidin CM5 chip, MAb 583 injected at 24 µg/ml, 25 C
Protocol: as §1, §2

K24-biotin hepcidin-25 [9] = target: T6, K24-biotin hepcidin-25 (human, K24-biotin (biotin on Lys 24)); assay: as above
T6 construct: also called K24-biotin hepcidin-25 tracer
T6 peptide: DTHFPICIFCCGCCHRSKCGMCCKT
Protocol: as §1, §2

K18-biotin hepcidin-25 [10] = target: T5, K18-biotin hepcidin-25; assay: as above
Protocol: as §1, §2

[11] = target: T4, Human hepcidin peptide (hepcidin-25); assay: cell-based or functional assay
[12] = target: T4, Human hepcidin peptide (hepcidin-25); assay: antibody titering ELISA, hepcidin 100 ng/well on plate, HRP-goat anti-mouse IgG; antibody 12.5 ng/well
NT-biotin hepcidin-25 [13] = target: T1, NT-biotin hepcidin-25; assay: SPR (Biacore 3000, CM5 chip, 25 °C): biotinylated peptide captured on immobilised neutravidin, MAb 583 injected at 5 µg/ml (33.5 nM per the table)
K18-biotin hepcidin-25 [14] = target: T5, K18-biotin hepcidin-25; assay: as above
NT-biotin hepcidin-25 [15] = target: T1, NT-biotin hepcidin-25; assay: SPR (Biacore 3000, CM5 chip, 25 °C): biotinylated peptide captured on immobilised neutravidin, MAb 583 injected at 5 µg/ml (33.5 nM per the table); column head 'Kd (1/s)'
K18-biotin hepcidin-25 [16] = target: T5, K18-biotin hepcidin-25; assay: as above
K24-biotin hepcidin-25 [17] = target: T6, K24-biotin hepcidin-25; assay: SPR, Biacore 3000, biotin peptide on neutravidin CM5 chip, MAb 583 injected at 24 µg/ml, 25 C; hepcidin-25 biotinylated at K24 (K24-biotin) on the chip; MAb 583 at 24 µg/ml
Protocol: as §1, §2

[18] = target: T4, Human hepcidin peptide (hepcidin-25); assay: antibody titering ELISA, hepcidin 100 ng/well on plate, HRP-goat anti-mouse IgG; antibody 50 ng/well
[19] = target: T4, Human hepcidin peptide (hepcidin-25); assay: antibody titering ELISA, hepcidin 100 ng/well on plate, HRP-goat anti-mouse IgG; antibody 25 ng/well
NT-biotin hepcidin-25 [20] = target: T1, NT-biotin hepcidin-25; assay: SPR (Biacore 3000, CM5 chip, 25 °C): biotinylated peptide captured on immobilised neutravidin, MAb 583 injected at 5 µg/ml (33.5 nM per the table); column head 'Ka (1/Ms)'
K18-biotin hepcidin-25 [21] = target: T5, K18-biotin hepcidin-25; assay: as above

- Kd (NT-biotin hepcidin-25 [1]): 51.6 pM
- binding result (Mouse hepcidin-1 peptide): no binding
- binding result [2]: no binding (tested: up to 2000 ng/ml)
- OD 450 nm [3]: 4 OD450
- Kd (K18-biotin hepcidin-25 [4]): 878 pM
- IC50 (read off the curve); normalized ferritin (% of uninduced sample) of Fpn-GFP HEK cells, 37 nM hepcidin-25 present [5]: ~2000 pM
- Kd (NT-biotin hepcidin-25 [6]): ~18 pM
- Kd (K18-biotin hepcidin-25 [7]): ~7.5 pM
- Ka (NT-biotin hepcidin-25 [8]): 1.94e+10 M⁻¹
- Req (NT-biotin hepcidin-25 [8]): 78.8 RU
- kobs (NT-biotin hepcidin-25 [8]): 0.00977 s⁻¹
- koff (NT-biotin hepcidin-25 [8]): 3.15e-06 s⁻¹
- kon (NT-biotin hepcidin-25 [8]): 61100 M⁻¹ s⁻¹
- Ka (K24-biotin hepcidin-25 [9]): 1.8e+08 M⁻¹
- Req (K24-biotin hepcidin-25 [9]): 63.1 RU
- kobs (K24-biotin hepcidin-25 [9]): 0.0086 s⁻¹
- koff (K24-biotin hepcidin-25 [9]): 0.000288 s⁻¹
- kon (K24-biotin hepcidin-25 [9]): 52000 M⁻¹ s⁻¹
- Ka (K18-biotin hepcidin-25 [10]): 1.14e+09 M⁻¹
- Req (K18-biotin hepcidin-25 [10]): 126 RU
- kobs (K18-biotin hepcidin-25 [10]): 0.0102 s⁻¹
- koff (K18-biotin hepcidin-25 [10]): 5.59e-05 s⁻¹
- kon (K18-biotin hepcidin-25 [10]): 63700 M⁻¹ s⁻¹
- EC50 (read off the curve); GFP fluorescence (% of untreated sample) of Fpn-GFP HEK cells, 37 nM hepcidin-25 present [11]: ~2000 pM
- OD 450 nm [12]: 4 OD450
- Ka (NT-biotin hepcidin-25 [13]): 5.47e+10 M⁻¹
- Kd (NT-biotin hepcidin-25 [13]): 18.3 pM
- Ka (K18-biotin hepcidin-25 [14]): 1.34e+11 M⁻¹
- Kd (K18-biotin hepcidin-25 [14]): 7.45 pM
- koff (NT-biotin hepcidin-25 [15]): 2.43e-05 s⁻¹
- koff (K18-biotin hepcidin-25 [16]): 1.4e-05 s⁻¹
- Kd (K24-biotin hepcidin-25 [17]): 5540 pM
- OD 450 nm [18]: 4 OD450
- OD 450 nm [19]: 4 OD450
- kon (NT-biotin hepcidin-25 [20]): 1.33e+06 M⁻¹ s⁻¹
- kon (K18-biotin hepcidin-25 [21]): 1.88e+06 M⁻¹ s⁻¹
B1: MAb 583 (antibody, V domains shown)
VH: QIQLVQSGPELKKPGETVKISCKASGYTFTNYGMNWVKQAPGKGLKWMGWINTYTGEPTYADDFKGRFAFSLETSASTAYLQINNLKNEDTATYFCTTYATSWYWGQG
VL: DIVLTQSPASLAVSLGQRATISCRASESVDSYGNSFMHWYQQKPGQPPKLLIYRASNLESGIPARFSGSGSRTDFTLTINPVEADDVATYYCQQSNEDLTFG
notes: Murine monoclonal, Protein A purified
